# Results taken from patent US20170204174A1 (published 2017).
# Where a chain is given by its changes, count along the chain named.
# B1: H1L5 humanized B1-23 anti-GDF-15 antibody (antibody, human IgG1, V domains shown)
# VH: QITLKESGPTLVKPTQTLTLTCTFSGFSLSTSGMGVSWIRQPPGKGLEWLAHIYWDDDKRYNPTLKSRLTITKDPSKNQVVLTMTNMDPVDTATYYCARSSYGAMDYWGQGTLVTVSS
# VL: DIVLTQSPSFLSASVGDRVTITCKASQNVGTNVAWFQQKPGKSPKALIYSASYRYSGVPDRFTGSGSGTEFTLTISSLQPEDFAAYFCQQYNNFPYTFGGGTKLEIKR
# notes: Human IgG1 (trastuzumab backbone); also called H1L5 anti-GDF-15 antibody; humanized B1-23-H1L5 antibody
# B2: murine monoclonal anti-human GDF-15 antibody mAb-B1-23 (antibody, V domains shown)
# VH: QVKLQQSGPGILQSSQTLSLTCSFSGFSLSTSGMGVSWIRQPSGKGLEWLAHIYWDDDKRYNPTLKSRLTISKDPSRNQVFLKITSVDTADTATYYCARSSYGAMDYWGQGTSVTVSS
# VL: DIVLTQSPKFMSTSVGDRVSVTCKASQNVGTNVAWFLQKPGQSPKALIYSASYRYSGVPDRFTGSGSGTDFTLTISNVQSEDLAEYFCQQYNNFPYTFGGGTKLEIKR
# notes: also called anti-human GDF-15 mAb-B1-23; B1-23 anti-GDF-15 antibody (murine, IgG2a)
# B3: chimeric anti-human GDF-15 mAb-B1-23 antibody (antibody, human IgG1, kappa, V domains shown)
# VH: B2 VH
# VL: B2 VL
# notes: Murine variable domains, constant domains of a human IgG1 (trastuzumab backbone); also called Chimeric B1-23 anti-GDF-15 antibody; chimeric B1-23
# Assays:
# [1] = target: recombinant mature human GDF-15 protein (SEQ ID No: 8) (human) (UniProt Q99988); test: Surface Acoustic Wave (SAW) gold chip biosensor
# [2] = target: T1, recombinant mature human GDF-15 protein (SEQ ID No: 8) (human, UniProt Q99988 197-308); test: Surface Acoustic Wave (SAW) gold chip biosensor
# T1 construct: also called recombinant human GDF-15; recombinant GDF-15
# T1 sequence: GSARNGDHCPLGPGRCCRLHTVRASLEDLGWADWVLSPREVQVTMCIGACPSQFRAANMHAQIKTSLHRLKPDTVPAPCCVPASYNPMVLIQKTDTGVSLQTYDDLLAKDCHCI
# [3] = target: T1, recombinant mature human GDF-15 protein …; test: Surface Acoustic Wave (SAW) gold chip biosensor; antibody as serum-free CHO culture supernatant
# [4] = target: T1, recombinant mature human GDF-15 protein …; test: Surface Acoustic Wave (SAW) gold chip biosensor; remark: listed apart in the source
# [5] = target: T2, recombinant mature human GDF-15 protein derived from expression in E. coli (human, UniProt Q99988 195-308); test: SPR (ProteOn XPR36), E. coli GDF-15 immobilised, antibody as analyte
# T2 construct: mature; also called GDF-15 derived from E. coli expression
# T2 sequence (looked up): T1 sequence with G1A, S2R
# Text: (§1) For preparing the biosensors recombinant mature human GDF-15 protein was immobilized on flow cells 1 and 2. On one flow cell recombinant GDF-15 derived from Baculvirus-transfected insect cells (HighFive insect cells) and on the other recombinant protein derived from expression in E. coli was used. The GLC sensor chip was activated using Sulfo-NHS (N-Hydroxysulfosuccinimide) and EDC (1-Ethyl-3-[3-dimethylaminopropyl]carbodiimide hydrochloride) (Bio-Rae ProteOn™ Amine Coupling Kit) according to the manufacturer's recommendation, the sensor surface was subsequently loaded with the proteins up to a density of about 600 RU (1 Ru=1 pg mm⁻²). The non-reacted coupling groups were then quenched by perfusion with 1M ethanolamine pH 8.5 and the biosensor was equilibrated by perfusing the chip with running buffer ([…], 150 mM NaCl, 3.4 mM EDTA, 0.005% Tween®20, pH 7.4, referred to as HBS150). As controls two flow cells were used, one empty with no protein coupled and one coupled with an non-physiological protein partner (human Interleukin-5), which was immobilized using the same coupling chemistry and the same coupling density. […] The resulting sensogram was analyzed using the software ProteOn Manager version 3.0. […]
# human Interleukin-5 = human Interleukin-5 (human, UniProt P05113 20-134); test: SPR (ProteOn XPR36), IL-5 immobilised, antibody as analyte
# Chain of human Interleukin-5 (P05113 20-134 limits assumed): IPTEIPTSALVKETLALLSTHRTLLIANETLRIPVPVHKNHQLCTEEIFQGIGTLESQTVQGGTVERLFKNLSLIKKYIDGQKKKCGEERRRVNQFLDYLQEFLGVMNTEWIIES
# Text: as §1
# [6] = target: T1, recombinant mature human GDF-15 protein …; test: SPR (ProteOn XPR36), KD=koff/kon, insect-cell GDF-15 immobilised
# Text: as §1
# [7] = target: T1, recombinant mature human GDF-15 protein …; test: SPR (ProteOn XPR36), insect-cell GDF-15 immobilised, antibody as analyte, 1:1 Langmuir, 25° C.
# Text: as §1
molecule,measurement,setting,value
Rituxumab (control antibody),Kd,[1],1.12 µM
B1,fold higher affinity than the murine B1-23 antibody,[2],~5 fold
same,Kd,[3],0.00562 µM
B2,Kd,[4],0.0288 µM
same,factor by which the affinity differs from that for insect-cell GDF-15,[5],< 2 fold
same,binding result,human Interleukin-5,"no binding (tested: 0.4, 0.8, 3, 12, 49 and 98 nM)"
same,Kd,[6],~0.00079 µM
same,koff,[7],0.00043 s⁻¹
same,kon,[7],540000 M⁻¹ s⁻¹
B3,fold higher affinity than the murine B1-23 antibody,[2],~2 fold
same,Kd,[4],0.014 µM
